Consider 1 substance from article PMC3032424.

The target in the assay is mouse hemoglobin (mouse) (UniProt P01942). The assay is described as follows: BLI.

In the case of “recombinant IsdB (from UniProt A6QG30 41-613) (receptor)”, the Kd was 980 nM.
